Reference: patent publication US20200031893

What was measured:
[1] = system: human wild-type proNGF
[2] = system: proNGF mutant SP174-101 (protease cleavage site mutated to VSAR)
Sequence of proNGF mutant SP174-101 (protease cleavage site mutated to VSAR) (chain, as listed by the source mutant): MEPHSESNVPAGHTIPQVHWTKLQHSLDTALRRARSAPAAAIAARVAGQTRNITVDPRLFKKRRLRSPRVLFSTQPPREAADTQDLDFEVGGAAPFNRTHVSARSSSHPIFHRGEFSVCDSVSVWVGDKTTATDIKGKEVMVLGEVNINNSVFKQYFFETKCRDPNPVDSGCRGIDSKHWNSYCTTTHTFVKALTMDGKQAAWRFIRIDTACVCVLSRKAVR

Sequence of human wild-type proNGF (chain, as listed by the source): as the sequence (chain, as listed by the source mutant) above, with V101R, A103K counted along it

Trypsin (Roche, GMP grade)
% ProNGF remaining after tryptic digestion, Trypsin/ProNGF ratio 1/250 (HPLC-UV) [1]: 0%
% ProNGF remaining after tryptic digestion, Trypsin/ProNGF ratio 1/1000 (HPLC-UV) [1]: 0%
% ProNGF remaining after tryptic digestion, Trypsin/ProNGF ratio 1/5000 (HPLC-UV) [1]: 21.5%
% ProNGF remaining after tryptic digestion, Trypsin/ProNGF ratio 1/10000 (HPLC-UV) [1]: 67.1%
% betaNGF (cleavage yield) after tryptic digestion, Trypsin/ProNGF ratio 1/250 (HPLC-UV) [1]: 67.9%
% betaNGF (cleavage yield) after tryptic digestion, Trypsin/ProNGF ratio 1/1000 (HPLC-UV) [1]: 77.9%
% betaNGF (cleavage yield) after tryptic digestion, Trypsin/ProNGF ratio 1/5000 (HPLC-UV) [1]: 18.6%
% betaNGF (cleavage yield) after tryptic digestion, Trypsin/ProNGF ratio 1/10000 (HPLC-UV) [1]: 4.6%
% betaNGF Overdigested Forms after tryptic digestion, Trypsin/ProNGF ratio 1/250 (HPLC-UV) [1]: 25.7%
% betaNGF Overdigested Forms after tryptic digestion, Trypsin/ProNGF ratio 1/1000 (HPLC-UV) [1]: 12.9%
% betaNGF Overdigested Forms after tryptic digestion, Trypsin/ProNGF ratio 1/5000 (HPLC-UV) [1]: 6.6%
% ProNGF remaining after tryptic digestion, Trypsin/ProNGF ratio 1/10000 (HPLC-UV) [2]: 1.9%
% betaNGF (cleavage yield) after tryptic digestion, Trypsin/ProNGF ratio 1/10000 (HPLC-UV) [2]: 84.5%
tryptic digestion, trypsin:proNGF 1:10,000 (w/w), 18 h, room temperature, SDS-PAGE [2]: A complete digestion of proNGF mutant to beta-NGF could be observed
